Data as given in patent publication US9127076B2, “Modified peptides having toxin-enhancing effects” (The University of Georgia Research Foundation, dated 2015).

B1: Ms-CR10-12(PS) (receptor)
chain: MHLECISATDPDGLHAGVVTFQVVGDEESQAYFQVVNDGANLGSLSLLQAVPEEIAEFSITICATDQGTDPGPLSTDMTFAVVFVPTQGEPAFASSEHAVAFIEASAGMEESHQLPLAQDIANHLCEDDCHSIYYAIIDGNSEGHFGLDPVANALFLSAELIAEQSASHTLQVAASNSPDGGIPLPASILTVTVTVAEADPAPVFMAELYTAGISTADSIGCELLALHATQSEGAAITYAIDYDTMVVDPSLEAVCQSAFVLNAQTGVLTLNIQPTATMHGLFNFEVTATDTAGAQDRTDVTVYVVSSQNRLEHHHHHH
B2: Sf-CR10-12 (receptor)
chain: MKFLDRLSATDEDGLHAGRVTFSIAGNDEAAEYFNVLNDGDNSAMLTLKQALPAGVQQFELVIRATDGGTEPGPRSTDCSVTVVFVMTQGDPVFDDNAASVRFVEKEAGMSEKFQLPQADDPKNYRCMDDCHTIYYSIVDGNDGDHFAVEPETNVIYLLKPLDRSQQEQYRVVVAASNTPGGTSTLSSSLLTVTIGVREANPRPIFESEFYTAGVLHTDSIHKELVYLAAKHSEGLPIVYSIDQETMKIDESLQTVVEDAFDINSATGVISLNFQPTSVMHGSFDFEVVASDTRGASDRAKVSIYMISTRVRVHHHHHH
B3: Sf-CR10-12(PS) (receptor)
chain: MAFLDCLSATDEDGLHAGCVTFSIAGNDEAAEYFNVLNDGDNSAMLTLSQALPAGVQQFELVISATDGGTEPGPSSTDCSVTVVFVMTQGDPVFDDNAASVSFVEHEAGMSESFQLPQADDPSNYACMDDCHTIYYSIVDGNDGDHFAVEPETNVIYLLSPLDSSQQEQYSVVVAASNTPGGTSTLSSSLLTVTIGVSEANPSPIFESEFYTAGVLHTDSIHSELVYLAASHSEGLPIVYSIDQETMSIDESLQTVVEDAFDINSATGVISLNFQPTSVMHGSFDFEVVASDTCGASDCASVSIYMISTRVRVHHHHHH

These binders were tested against Cry1Fa toxin (Bacillus thuringiensis, UniProt Q03746) (assay: cell-based or functional assay).

Binder | larval mortality and larval weight, diet surface bioassay, neonate S. frugiperda, 0.1 µg/cm^2 Cry1Fa
B1 | < 2 fold
B2 | ~2 fold
B3 | ~4 fold
